Measurements reported in the supplement of paper PMC10724198.
± gives the standard deviation of the averaged measurements.

Test system: Saccharomyces cerevisiae
Experiment: protein stability index of tFT-peptide fusion (C-terminal peptide) (PSI (0-1 scale)); higher = more stable (slower turnover)
Settings: temperature: 30 C
Method: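 MPS profiling in S. cerevisiae of the yeast C-terminome library: the last 12 aa of each annotated ORF are fused to the C-terminus of a sfGFP-mCherry timer, after a GGGS linker. Cells are FACS-sorted into 8 mCherry/sfGFP bins and deep-sequenced. PSI runs from 0 (unstable) to 1 (stable); wild type and das1Δ backgrounds, two technical replicates each.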

[1] = genetic background: das1 deletion

Row | Sequence | protein stability index [1] | protein stability index (genetic background: wild type)
1 | GLKGLFPTSYCK [BZZ1 C-terminal 12 aa] | 0.702 ± 0.039 | 0.732 ± 0.02
2 | GLQKKNIKIHGF [SUI1 C-terminal 12 aa] | 0.699 ± 0.024 | 0.684 ± 0.074
3 | GQGTTLGGPFFP [ALB1 C-terminal 12 aa] | 0.724 ± 0.019 | 0.7215 ± 0.0052
4 | GRENGDVNIWAV [MDV1 C-terminal 12 aa] | 0.702 ± 0.013 | 0.715 ± 0.0099
5 | GRYAQIHEKHIE [ASN1 C-terminal 12 aa] | 0.7022 ± 0.0044 | 0.691 ± 0.089
6 | GSAAVAGALLLL [YNL190W C-terminal 12 aa] | 0.689 ± 0.02 | 0.664 ± 0.023
7 | GSSLITEGVYVI [NSE1 C-terminal 12 aa] | 0.686 ± 0.021 | 0.683 ± 0.028
8 | GSVPANWNWSSF [PIB2 C-terminal 12 aa] | 0.739 ± 0.03 | 0.699 ± 0.048
9 | GTVCYGMIEIFF [VTC5 C-terminal 12 aa] | 0.596 ± 0.009 | 0.616 ± 0.013
10 | GVITPVYFPLRW [YDR215C C-terminal 12 aa] | 0.725 ± 0.008 | 0.715 ± 0.017
11 | GYACPTHYLREM [MXR1 C-terminal 12 aa] | 0.6899 ± 0.0052 | 0.7169 ± 0.0063
12 | HEKRTEEVARYA [YGR026W C-terminal 12 aa] | 0.7173 ± 0.0035 | 0.6604 ± 0.0066
13 | HEVDTEKINIFQ [YML003W C-terminal 12 aa] | 0.729 ± 0.018 | 0.697 ± 0.026
14 | HGGNVSSSTYQA [GND1 C-terminal 12 aa] | 0.685 ± 0.013 | 0.696 ± 0.029
15 | HGNDFLQHVNRK [RSM22 C-terminal 12 aa] | 0.716 ± 0.03 | 0.7065 ± 0.0016
16 | HIFYFVLSYSEW [YIL030W-A C-terminal 12 aa] | 0.172 ± 0.022 | 0.192 ± 0.0083
17 | HIREDYLRQFGN [KTR5 C-terminal 12 aa] | 0.691 ± 0.027 | 0.616 ± 0.022
18 | HKSGKLLLPVYI [ECO1 C-terminal 12 aa] | 0.636 ± 0.0084 | 0.619 ± 0.03
19 | HLQRCLSRGARR [SGF11 C-terminal 12 aa] | 0.698 ± 0.016 | 0.759 ± 0.039
20 | HNILDRCLKRLS [RKM3 C-terminal 12 aa] | 0.699 ± 0.03 | 0.716 ± 0.013
21 | HNPSLWSCIFGK [SWS2 C-terminal 12 aa] | 0.716 ± 0.02 | 0.714 ± 0.029

Row | Sequence | protein stability index [1] | protein stability index (genetic background: wild type)
22 | HNVCGRAFSLPL [HSL7 C-terminal 12 aa] | 0.7123 ± 0.0037 | 0.677 ± 0.035
23 | HQKARSSYCCIQ [XDJ1 C-terminal 12 aa] | 0.759 ± 0.02 | 0.706 ± 0.0085
24 | HRIASKIRSKLR [GIP4 C-terminal 12 aa] | 0.686 ± 0.0021 | 0.714 ± 0.03
25 | HTSVKALQRMTW [CTH1 C-terminal 12 aa] | 0.7271 ± 0.0051 | 0.6829 ± 0.0024
26 | HWLQLKPGQPMY [MF(ALPHA)1 C-terminal 12 aa] | 0.7177 ± 0.0044 | 0.6822 ± 0.0032
27 | HYSPFYQLPLIF [YGR240C-A C-terminal 12 aa] | 0.683 ± 0.022 | 0.575 ± 0.0067
28 | IAPEVTYRGFIE [RIM9 C-terminal 12 aa] | 0.689 ± 0.027 | 0.685 ± 0.03
29 | IDEIYEDKWLKI [PSK2 C-terminal 12 aa] | 0.727 ± 0.027 | 0.74 ± 0.047
30 | IDLVLVVNVLSL [YCR064C C-terminal 12 aa] | 0.425 ± 0.015 | 0.428 ± 0.0062
31 | IDTWEIKFNELF [YLR287C C-terminal 12 aa] | 0.732 ± 0.042 | 0.6954 ± 0.0012
32 | IELWETFYQTNL [VPS5 C-terminal 12 aa] | 0.745 ± 0.011 | 0.7177 ± 0.0056
33 | IESTLSNKLSIN [YCR013C C-terminal 12 aa] | 0.696 ± 0.024 | 0.674 ± 0.014
34 | IFTSGSKSMKDL [ALG6 C-terminal 12 aa] | 0.73 ± 0.01 | 0.671 ± 0.0092
35 | IFVAILLRYAKI [PCA1 C-terminal 12 aa] | 0.243 ± 0.013 | 0.228 ± 0.006
36 | IFVGETIFFFLF [YDR053W C-terminal 12 aa] | 0.625 ± 0.016 | 0.536 ± 0.018
37 | IFYLRFPSYIRG [YJR151W-A C-terminal 12 aa] | 0.614 ± 0.017 | 0.615 ± 0.0023
38 | IGRENENENEDD [POP5 C-terminal 12 aa] | 0.688 ± 0.037 | 0.704 ± 0.058
39 | IHTPTIPKRSLT [MCX1 C-terminal 12 aa] | 0.7149 ± 0.0019 | 0.767 ± 0.052
40 | IIGALNLYDGLI [FRQ1 C-terminal 12 aa] | 0.737 ± 0.017 | 0.763 ± 0.12
41 | IIGIYYVLKWLR [BOS1 C-terminal 12 aa] | 0.3507 ± 0.0021 | 0.392 ± 0.0089
42 | IKLARRLRGERS [YBR010W; YNL031C C-terminal 12 aa] | 0.6941 ± 0.0047 | 0.68 ± 0.012

Row | Sequence | protein stability index [1] | protein stability index (genetic background: wild type)
43 | IKLIDFNETSLT [MCM22 C-terminal 12 aa] | 0.68 ± 0.008 | 0.675 ± 0.0072
44 | IKRLDANTDFNI [MFB1 C-terminal 12 aa] | 0.678 ± 0.019 | 0.668 ± 0.024
45 | ILDDTRQALGNT [PCL8 C-terminal 12 aa] | 0.703 ± 0.034 | 0.737 ± 0.013
46 | ILKELSNLETLY [RPB4 C-terminal 12 aa] | 0.7182 ± 0.007 | 0.737 ± 0.051
47 | ILNCVGSAKTSG [YBR298C-A C-terminal 12 aa] | 0.68417 ± 0.00062 | 0.666 ± 0.019
48 | ILRNASQIVSSV [VPS1 C-terminal 12 aa] | 0.7029 ± 0.0038 | 0.6942 ± 0.0029
49 | ILRPLELKYFGR [FCY2 C-terminal 12 aa] | 0.707 ± 0.029 | 0.675 ± 0.027
50 | ILSLYFISDRTG [YBR200W-A C-terminal 12 aa] | 0.7249 ± 0.0034 | 0.753 ± 0.053
51 | ILWKNGIYIAHI [HUR1 C-terminal 12 aa] | 0.659 ± 0.01 | 0.6113 ± 0.0034
52 | ININDLMVNRNH [YOR389W C-terminal 12 aa] | 0.7014 ± 0.0018 | 0.7003 ± 0.0012
53 | INKKKSGSGCIC [YPT10 C-terminal 12 aa] | 0.696 ± 0.035 | 0.647 ± 0.026
54 | INKRAVSNSKDV [RFT1 C-terminal 12 aa] | 0.692 ± 0.026 | 0.727 ± 0.027
55 | IPTKKSQMDYFL [PPH3 C-terminal 12 aa] | 0.709 ± 0.029 | 0.753 ± 0.064
56 | IRLDGENNSCSC [YPT7 C-terminal 12 aa] | 0.692 ± 0.017 | 0.697 ± 0.012
57 | ISRKAGHPAPAF [YML100W-A C-terminal 12 aa] | 0.717 ± 0.0091 | 0.704 ± 0.03
58 | ITLRLWEQRQAK [MAD1 C-terminal 12 aa] | 0.754 ± 0.019 | 0.726 ± 0.0076
59 | IYALSIKHPKEI [CPT1 C-terminal 12 aa] | 0.713 ± 0.0085 | 0.7248 ± 0.0029
60 | IYANRDKAKKNM [OPI3 C-terminal 12 aa] | 0.681 ± 0.021 | 0.499 ± 0.03
61 | IYIYTSTLQLCV [YHR028W-A C-terminal 12 aa] | 0.376 ± 0.024 | 0.362 ± 0.011
